Experimental findings from EP4534102A1, “ANTIBODY DRUG CONJUGATE (ADC) TARGETING NECTIN 4 AND COMPRISING AN EXATECAN PAYLOAD” (Eli Lilly and Company, priority 2023, dated 2025) are described below.

A short description of the data set: Aggregation by SEC-HPLC. It is filed as physicochemical. As to the method:
As determined by SEC-HPLC, less than 5% material was aggregated. […] (See Figure 2 and corresponding Brief Description). […] (See Figure 3 and corresponding Brief Description). In vitro cytotoxic activity was assessed for the HCT-116-2G10 clone expressing human nectin-4. (See Figure 4 and corresponding Brief Description).
As a comparator ADC, the HA22 anti-Nectin-4 mAb was conjugated to maleimidocaproyl-valine-citrulline-PABC-MMAE to generate enfortumab vedotin. Briefly, a 15 mg/mL solution of the HA22 in 10 mM acetate 1% sorbitol, 3% L-arginine, pH 5.0 was supplemented with a 20% volume of 0.1 M Tris, 25 mM EDTA and 750 mM NaCl, pH 8.4 to adjust the pH of the solution to 7.5, 5 mM EDTA and 150 mM sodium chloride. […] The mixture was stirred for 60 minutes at 5° C, then for 15 additional minutes following the addition of 1 molar equivalents of N-acetylcysteine relative to cysteine reactive linker-MMAE compound. Excess quenched cysteine reactive linker-payload and other reaction components were removed by ultrafiltration/diafiltration of the antibody drug conjugate (ADC) with 10 volumes of 20 mM histidine, pH 6.0. The drug-antibody ratio (DAR) according to LC-MS analysis was 3.79 toxins per conjugated mAb. As determined by SEC-HPLC, less than 1% material was aggregated.

Regarding “enfortumab vedotin: HA22 anti-Nectin-4 mAb conjugated to maleimidocaproyl-valine-citrulline-PABC-MMAE; comparator ADC”, the material aggregated result is recorded as “less than 1%”.
